{
  "source": "patent US20100184658A1",
  "about": "(published 2010)",
  "assay_in_all_cases": "cell-based or functional assay",
  "key": {"PRKCA (PKC alpha)": {"target": "PRKCA (PKC alpha) (UniProt P17252 1-672, limits assumed)"}, "PLK1 Polo-like kinase 1": {"target": "PLK1 Polo-like kinase 1 (UniProt P53350 1-603, limits assumed)", "sequence (P53350 whole entry)": "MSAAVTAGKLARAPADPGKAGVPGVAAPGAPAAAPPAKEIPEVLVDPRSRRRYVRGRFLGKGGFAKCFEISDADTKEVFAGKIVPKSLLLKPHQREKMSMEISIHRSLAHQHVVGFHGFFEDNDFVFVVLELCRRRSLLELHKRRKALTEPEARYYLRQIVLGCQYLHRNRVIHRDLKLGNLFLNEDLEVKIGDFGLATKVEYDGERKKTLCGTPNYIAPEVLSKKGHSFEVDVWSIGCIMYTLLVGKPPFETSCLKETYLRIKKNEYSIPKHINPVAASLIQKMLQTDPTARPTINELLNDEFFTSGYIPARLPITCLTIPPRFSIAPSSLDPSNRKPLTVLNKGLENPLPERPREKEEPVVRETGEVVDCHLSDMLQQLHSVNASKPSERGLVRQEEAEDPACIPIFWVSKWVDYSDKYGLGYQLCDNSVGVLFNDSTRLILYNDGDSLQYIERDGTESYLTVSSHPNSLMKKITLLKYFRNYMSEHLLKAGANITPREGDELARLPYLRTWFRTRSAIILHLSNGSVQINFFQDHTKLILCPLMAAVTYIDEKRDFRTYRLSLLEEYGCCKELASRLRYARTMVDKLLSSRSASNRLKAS"}, "[1]": {"target": "STK24 (MST3) Serine/threonine kinase 24 (STE20 homolog, yeast) (UniProt Q9Y6E0 1-443, limits assumed)", "sequence (Q9Y6E0 whole entry)": "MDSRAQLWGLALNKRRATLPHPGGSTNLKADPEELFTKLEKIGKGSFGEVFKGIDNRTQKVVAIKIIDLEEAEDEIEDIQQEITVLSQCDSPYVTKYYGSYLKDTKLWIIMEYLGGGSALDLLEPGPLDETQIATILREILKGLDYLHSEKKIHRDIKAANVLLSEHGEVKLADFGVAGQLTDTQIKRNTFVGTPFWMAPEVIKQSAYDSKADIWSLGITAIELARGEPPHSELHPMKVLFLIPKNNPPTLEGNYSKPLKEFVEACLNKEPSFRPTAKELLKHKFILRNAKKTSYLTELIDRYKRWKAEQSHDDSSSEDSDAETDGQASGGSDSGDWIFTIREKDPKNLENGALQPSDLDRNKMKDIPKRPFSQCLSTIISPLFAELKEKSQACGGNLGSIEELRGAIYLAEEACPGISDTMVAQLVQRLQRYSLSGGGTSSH"}, "[2]": {"target": "T1, NEK9 NIMA (never in mitosis gene a)-related kinase 9 (UniProt Q8TD19 1-979, limits assumed)", "T1 sequence (looked up)": "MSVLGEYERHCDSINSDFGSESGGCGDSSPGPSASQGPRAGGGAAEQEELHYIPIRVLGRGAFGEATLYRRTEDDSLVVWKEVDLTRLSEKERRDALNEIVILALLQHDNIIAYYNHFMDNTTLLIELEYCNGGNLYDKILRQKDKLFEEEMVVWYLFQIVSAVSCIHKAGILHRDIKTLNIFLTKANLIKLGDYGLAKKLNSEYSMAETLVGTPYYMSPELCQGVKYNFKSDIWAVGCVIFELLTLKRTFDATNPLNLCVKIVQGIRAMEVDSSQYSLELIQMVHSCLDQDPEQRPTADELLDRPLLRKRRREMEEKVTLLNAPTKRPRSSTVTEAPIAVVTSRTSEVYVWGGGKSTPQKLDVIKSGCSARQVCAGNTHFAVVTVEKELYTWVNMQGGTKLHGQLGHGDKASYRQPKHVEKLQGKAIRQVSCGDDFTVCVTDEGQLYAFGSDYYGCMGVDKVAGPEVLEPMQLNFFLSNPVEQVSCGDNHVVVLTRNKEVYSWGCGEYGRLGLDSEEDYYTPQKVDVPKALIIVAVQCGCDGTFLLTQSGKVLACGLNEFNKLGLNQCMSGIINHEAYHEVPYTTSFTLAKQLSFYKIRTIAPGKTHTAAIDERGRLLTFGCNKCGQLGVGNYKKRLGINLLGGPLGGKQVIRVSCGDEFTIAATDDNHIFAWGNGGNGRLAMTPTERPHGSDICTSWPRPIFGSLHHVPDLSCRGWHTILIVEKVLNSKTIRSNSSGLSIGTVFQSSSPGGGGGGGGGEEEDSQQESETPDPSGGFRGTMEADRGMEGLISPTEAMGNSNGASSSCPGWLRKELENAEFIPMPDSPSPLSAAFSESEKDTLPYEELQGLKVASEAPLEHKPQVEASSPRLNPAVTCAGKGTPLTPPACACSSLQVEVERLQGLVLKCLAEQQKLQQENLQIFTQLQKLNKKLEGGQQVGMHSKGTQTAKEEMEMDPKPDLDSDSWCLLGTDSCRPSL"}, "[3]": {"target": "T2, TAOK2 (TAO1) TAO kinase 2 (UniProt Q9UL54 1-314, limits assumed)", "T2 sequence (looked up)": "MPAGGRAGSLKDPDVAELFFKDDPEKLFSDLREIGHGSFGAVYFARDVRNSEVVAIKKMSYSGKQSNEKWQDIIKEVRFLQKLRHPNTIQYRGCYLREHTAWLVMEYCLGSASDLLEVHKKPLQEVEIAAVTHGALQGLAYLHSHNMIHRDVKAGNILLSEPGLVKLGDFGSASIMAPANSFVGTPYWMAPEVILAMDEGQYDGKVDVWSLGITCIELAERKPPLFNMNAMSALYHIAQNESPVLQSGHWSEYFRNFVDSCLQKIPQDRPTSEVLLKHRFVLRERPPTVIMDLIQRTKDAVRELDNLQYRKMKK"}, "[4]": {"target": "STK25 (YSK1) Serine/threonine kinase 25 (STE20 homolog, yeast) (UniProt O00506 1-426, limits assumed)", "sequence (O00506 whole entry)": "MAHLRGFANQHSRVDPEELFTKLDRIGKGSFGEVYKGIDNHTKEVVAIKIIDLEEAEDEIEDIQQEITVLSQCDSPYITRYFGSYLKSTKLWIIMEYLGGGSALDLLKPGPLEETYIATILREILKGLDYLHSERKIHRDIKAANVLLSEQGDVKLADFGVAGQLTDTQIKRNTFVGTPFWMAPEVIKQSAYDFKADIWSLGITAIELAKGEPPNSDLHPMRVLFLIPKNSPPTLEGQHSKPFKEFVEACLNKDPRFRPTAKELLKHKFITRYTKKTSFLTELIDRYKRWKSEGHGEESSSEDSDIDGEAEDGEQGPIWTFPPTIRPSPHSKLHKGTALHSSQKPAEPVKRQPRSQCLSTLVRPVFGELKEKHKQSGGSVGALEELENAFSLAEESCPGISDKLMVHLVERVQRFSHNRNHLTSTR"}, "PASK": {"target": "PASK (UniProt Q96RG2 879-1323, limits assumed)", "sequence (Q96RG2 879-1323 limits assumed)": "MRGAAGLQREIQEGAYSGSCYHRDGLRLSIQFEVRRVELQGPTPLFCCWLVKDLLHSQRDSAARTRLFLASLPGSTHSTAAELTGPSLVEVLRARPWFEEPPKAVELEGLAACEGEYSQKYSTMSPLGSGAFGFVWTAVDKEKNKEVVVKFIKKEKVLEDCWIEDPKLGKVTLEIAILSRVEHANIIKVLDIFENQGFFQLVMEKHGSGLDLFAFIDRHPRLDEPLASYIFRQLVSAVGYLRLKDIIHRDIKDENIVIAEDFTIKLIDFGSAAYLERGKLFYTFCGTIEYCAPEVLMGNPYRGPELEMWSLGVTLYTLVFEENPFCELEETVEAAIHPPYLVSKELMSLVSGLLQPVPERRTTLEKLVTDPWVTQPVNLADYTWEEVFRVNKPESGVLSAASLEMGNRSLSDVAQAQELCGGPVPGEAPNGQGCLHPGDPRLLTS"}, "[5]": {"target": "MAP3K9 (MLK1) Mitogen-activated protein kinase kinase kinase 9 (UniProt P80192 132-413, limits assumed)", "sequence (P80192 132-413 limits assumed)": "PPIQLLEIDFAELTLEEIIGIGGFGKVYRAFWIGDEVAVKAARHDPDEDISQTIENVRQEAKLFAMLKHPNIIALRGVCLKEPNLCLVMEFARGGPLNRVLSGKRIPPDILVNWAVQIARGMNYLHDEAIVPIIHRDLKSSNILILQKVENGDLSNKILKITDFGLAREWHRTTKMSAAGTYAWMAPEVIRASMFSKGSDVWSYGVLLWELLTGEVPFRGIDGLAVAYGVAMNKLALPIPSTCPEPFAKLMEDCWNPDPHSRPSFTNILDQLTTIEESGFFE"}, "[6]": {"target": "T3, CAMK4 (CaMKIV) Calcium/calmodulin-dependent protein kinase IV (UniProt Q16566 1-473, limits assumed)", "T3 sequence (looked up)": "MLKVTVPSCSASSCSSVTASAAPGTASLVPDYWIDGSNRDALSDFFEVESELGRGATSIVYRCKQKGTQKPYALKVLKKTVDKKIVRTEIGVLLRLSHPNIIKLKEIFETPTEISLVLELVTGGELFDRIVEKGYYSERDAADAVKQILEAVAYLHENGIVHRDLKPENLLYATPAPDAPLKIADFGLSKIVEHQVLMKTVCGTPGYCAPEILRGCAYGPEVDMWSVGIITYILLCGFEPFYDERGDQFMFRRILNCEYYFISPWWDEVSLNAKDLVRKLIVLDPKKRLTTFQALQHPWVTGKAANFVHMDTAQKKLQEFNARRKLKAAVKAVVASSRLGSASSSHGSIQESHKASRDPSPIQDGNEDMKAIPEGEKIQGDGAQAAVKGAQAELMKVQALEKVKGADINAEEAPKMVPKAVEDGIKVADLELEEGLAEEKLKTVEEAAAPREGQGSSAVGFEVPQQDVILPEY"}, "CLK3": {"target": "CLK3 (UniProt P49761 1-490, limits assumed)", "sequence (P49761 whole entry)": "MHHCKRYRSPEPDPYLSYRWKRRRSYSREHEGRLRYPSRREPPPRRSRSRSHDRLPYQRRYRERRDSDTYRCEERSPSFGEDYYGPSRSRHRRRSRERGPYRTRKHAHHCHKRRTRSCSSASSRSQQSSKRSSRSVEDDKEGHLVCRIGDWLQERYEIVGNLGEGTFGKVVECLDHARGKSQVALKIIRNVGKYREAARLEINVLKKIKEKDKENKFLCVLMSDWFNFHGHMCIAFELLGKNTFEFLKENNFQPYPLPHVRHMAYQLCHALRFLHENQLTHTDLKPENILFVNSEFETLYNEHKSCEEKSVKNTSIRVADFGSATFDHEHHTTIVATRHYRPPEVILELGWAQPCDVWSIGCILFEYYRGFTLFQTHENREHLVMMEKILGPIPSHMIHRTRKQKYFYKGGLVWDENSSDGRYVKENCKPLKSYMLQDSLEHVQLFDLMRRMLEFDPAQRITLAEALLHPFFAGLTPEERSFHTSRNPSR"}, "AKT2 (PKB beta)": {"target": "AKT2 (PKB beta) (human (printed as (h)), UniProt P31751 1-481, limits assumed)"}, "GRK4": {"target": "GRK4 (UniProt P32298 1-578, limits assumed)"}, "[7]": {"target": "MAP2K2 (MEK2) Mitogen-activated protein kinase kinase 2 (UniProt P36507 1-400, limits assumed)"}, "PRKCB2 (PKC beta II)": {"target": "PRKCB2 (PKC beta II) (human (printed as (h)), UniProt P05771-2 1-673)", "sequence (P05771 other isoform, or with tags, fused parts or gaps limits assumed)": "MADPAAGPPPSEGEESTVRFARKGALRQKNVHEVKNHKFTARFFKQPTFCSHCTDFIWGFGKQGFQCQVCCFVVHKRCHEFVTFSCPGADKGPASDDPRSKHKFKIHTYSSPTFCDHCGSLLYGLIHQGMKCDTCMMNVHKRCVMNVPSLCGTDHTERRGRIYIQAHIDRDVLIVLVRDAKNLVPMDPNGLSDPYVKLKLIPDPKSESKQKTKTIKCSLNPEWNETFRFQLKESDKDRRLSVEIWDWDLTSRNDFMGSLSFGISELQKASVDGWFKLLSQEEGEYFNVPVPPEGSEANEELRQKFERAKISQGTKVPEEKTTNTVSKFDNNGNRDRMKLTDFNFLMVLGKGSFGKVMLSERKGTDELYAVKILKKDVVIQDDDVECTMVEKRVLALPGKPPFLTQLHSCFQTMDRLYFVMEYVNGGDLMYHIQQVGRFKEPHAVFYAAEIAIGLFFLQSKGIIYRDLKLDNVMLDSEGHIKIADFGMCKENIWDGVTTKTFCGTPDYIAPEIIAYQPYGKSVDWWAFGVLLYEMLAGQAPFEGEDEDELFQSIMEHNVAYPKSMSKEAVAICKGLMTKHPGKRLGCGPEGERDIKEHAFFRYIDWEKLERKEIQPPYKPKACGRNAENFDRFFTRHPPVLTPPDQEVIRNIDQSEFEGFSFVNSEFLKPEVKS"}, "MELK": {"target": "MELK (UniProt Q14680 1-340, limits assumed)", "sequence (Q14680 1-340 limits assumed)": "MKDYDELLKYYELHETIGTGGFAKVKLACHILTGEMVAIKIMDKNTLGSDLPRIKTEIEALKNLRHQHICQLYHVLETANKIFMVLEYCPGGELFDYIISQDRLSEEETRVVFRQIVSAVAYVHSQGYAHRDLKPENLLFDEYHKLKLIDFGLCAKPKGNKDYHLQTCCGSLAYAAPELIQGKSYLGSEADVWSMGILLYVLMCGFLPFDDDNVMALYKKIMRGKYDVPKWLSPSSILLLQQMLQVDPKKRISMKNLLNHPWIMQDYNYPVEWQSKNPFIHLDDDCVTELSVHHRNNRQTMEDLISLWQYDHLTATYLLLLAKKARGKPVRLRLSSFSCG"}, "DAPK3 (ZIPK)": {"target": "DAPK3 (ZIPK) (UniProt O43293 1-454, limits assumed)", "sequence (O43293 whole entry)": "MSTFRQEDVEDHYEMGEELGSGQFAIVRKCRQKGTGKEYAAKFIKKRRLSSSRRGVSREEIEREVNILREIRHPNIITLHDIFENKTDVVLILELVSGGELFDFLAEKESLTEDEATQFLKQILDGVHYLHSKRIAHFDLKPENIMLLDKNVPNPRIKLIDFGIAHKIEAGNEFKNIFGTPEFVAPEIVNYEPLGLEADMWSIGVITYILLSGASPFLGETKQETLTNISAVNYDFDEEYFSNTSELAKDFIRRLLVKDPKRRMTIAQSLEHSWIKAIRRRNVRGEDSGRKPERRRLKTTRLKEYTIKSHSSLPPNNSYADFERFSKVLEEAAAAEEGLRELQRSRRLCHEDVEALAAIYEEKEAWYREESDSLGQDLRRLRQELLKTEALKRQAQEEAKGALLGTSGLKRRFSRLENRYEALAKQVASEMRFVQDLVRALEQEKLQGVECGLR"}, "CSK": {"target": "CSK (UniProt P41240 1-450, limits assumed)", "sequence (P41240 whole entry)": "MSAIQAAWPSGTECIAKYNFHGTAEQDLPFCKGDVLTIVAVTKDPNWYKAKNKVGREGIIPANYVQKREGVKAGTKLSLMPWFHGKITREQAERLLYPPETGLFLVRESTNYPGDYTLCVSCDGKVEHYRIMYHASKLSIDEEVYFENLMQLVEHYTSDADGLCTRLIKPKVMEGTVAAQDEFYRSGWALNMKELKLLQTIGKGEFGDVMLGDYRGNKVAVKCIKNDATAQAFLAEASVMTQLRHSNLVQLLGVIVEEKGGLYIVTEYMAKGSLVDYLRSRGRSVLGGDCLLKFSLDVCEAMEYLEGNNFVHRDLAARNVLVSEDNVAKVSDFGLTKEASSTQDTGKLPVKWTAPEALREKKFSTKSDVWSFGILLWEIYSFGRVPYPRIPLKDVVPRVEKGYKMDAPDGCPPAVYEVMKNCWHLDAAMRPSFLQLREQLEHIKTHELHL"}, "PIM1 Pim-1 oncogene": {"target": "PIM1 Pim-1 oncogene (UniProt P11309 1-313, limits assumed)", "sequence (P11309 whole entry)": "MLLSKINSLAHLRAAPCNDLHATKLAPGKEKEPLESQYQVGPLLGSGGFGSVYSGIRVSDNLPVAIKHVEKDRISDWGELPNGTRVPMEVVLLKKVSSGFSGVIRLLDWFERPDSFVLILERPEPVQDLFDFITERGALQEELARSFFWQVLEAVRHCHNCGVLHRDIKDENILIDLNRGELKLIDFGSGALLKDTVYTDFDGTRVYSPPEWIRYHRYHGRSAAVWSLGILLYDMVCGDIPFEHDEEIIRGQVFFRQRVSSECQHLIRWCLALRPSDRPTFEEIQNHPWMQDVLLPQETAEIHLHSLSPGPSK"}},
  "data": [
    {"binder": "SGRPPMIVWFNRPFLIAVSHTHGQTILFMAKVINPVGA", "note": "[D3 peptide]", "values": [
      {"measurement": "% Inhibition mean", "setting": "PRKCA (PKC alpha)", "value": 45.1, "unit": "%"},
      {"measurement": "% Inhibition mean", "setting": "PLK1 Polo-like kinase 1", "value": 51, "unit": "%"},
      {"measurement": "% Inhibition mean", "setting": "[1]", "value": 98.6, "unit": "%"},
      {"measurement": "% Inhibition mean", "setting": "[2]", "value": 108, "unit": "%"},
      {"measurement": "% Inhibition mean", "setting": "[3]", "value": 100, "unit": "%"},
      {"measurement": "% Inhibition mean", "setting": "[4]", "value": 93.1, "unit": "%"},
      {"measurement": "% Inhibition mean", "setting": "PASK", "value": 80.8, "unit": "%"},
      {"measurement": "% Inhibition mean", "setting": "[5]", "value": 101, "unit": "%"},
      {"measurement": "% Inhibition mean", "setting": "[6]", "value": 99.6, "unit": "%"},
      {"measurement": "% Inhibition mean", "setting": "CLK3", "value": 46, "unit": "%"},
      {"measurement": "% Inhibition mean", "setting": "AKT2 (PKB beta)", "value": 67.7, "unit": "%"},
      {"measurement": "% Inhibition mean", "setting": "GRK4", "value": 58.6, "unit": "%"},
      {"measurement": "% Inhibition mean", "setting": "[7]", "value": 105, "unit": "%"},
      {"measurement": "% Inhibition mean", "setting": "PRKCB2 (PKC beta II)", "value": 61.6, "unit": "%"},
      {"measurement": "% Inhibition mean", "setting": "MELK", "value": 85.8, "unit": "%"},
      {"measurement": "% Inhibition mean", "setting": "DAPK3 (ZIPK)", "value": 62, "unit": "%"},
      {"measurement": "% Inhibition mean", "setting": "CSK", "value": 55.2, "unit": "%"},
      {"measurement": "% Inhibition mean", "setting": "PIM1 Pim-1 oncogene", "value": 89, "unit": "%"}
    ]}
  ]
}
